B1: E3 ubiquitin-protein ligase MYLIP (Homo sapiens), Q8WY64 (parent)
chain: MLCYVTRPDAVLMEVEVEAKANGEDCLNQVCRRLGIIEVDYFGLQFTGSKGESLWLNLRNRISQQMDGLAPYRLKLRVKFFVEPHLILQEQTRHIFFLHIKEALLAGHLLCSPEQAVELSALLAQTKFGDYNQNTAKYNYEELCAKELSSATLNSIVAKHKELEGTSQASAEYQVLQIVSAMENYGIEWHSVRDSEGQKLLIGVGPEGISICKDDFSPINRIAYPVVQMATQSGKNVYLTVTKESGNSIVLLFKMISTRAASGLYRAITETHAFYRCDTVTSAVMMQYSRDLKGHLASLFLNENINLGKKYVFDIKRTSKEVYDHARRALYNAGVVDLVSRNNQSPSHSPLKSSESSMNCSSCEGLSCQQTRVLQEKLRKLKEAMLCMVCCEEEINSTFCPCGHTVCCESCAAQLQSCPVCRSRVEHVQHVYLPTHTSLLNLTVI
partner: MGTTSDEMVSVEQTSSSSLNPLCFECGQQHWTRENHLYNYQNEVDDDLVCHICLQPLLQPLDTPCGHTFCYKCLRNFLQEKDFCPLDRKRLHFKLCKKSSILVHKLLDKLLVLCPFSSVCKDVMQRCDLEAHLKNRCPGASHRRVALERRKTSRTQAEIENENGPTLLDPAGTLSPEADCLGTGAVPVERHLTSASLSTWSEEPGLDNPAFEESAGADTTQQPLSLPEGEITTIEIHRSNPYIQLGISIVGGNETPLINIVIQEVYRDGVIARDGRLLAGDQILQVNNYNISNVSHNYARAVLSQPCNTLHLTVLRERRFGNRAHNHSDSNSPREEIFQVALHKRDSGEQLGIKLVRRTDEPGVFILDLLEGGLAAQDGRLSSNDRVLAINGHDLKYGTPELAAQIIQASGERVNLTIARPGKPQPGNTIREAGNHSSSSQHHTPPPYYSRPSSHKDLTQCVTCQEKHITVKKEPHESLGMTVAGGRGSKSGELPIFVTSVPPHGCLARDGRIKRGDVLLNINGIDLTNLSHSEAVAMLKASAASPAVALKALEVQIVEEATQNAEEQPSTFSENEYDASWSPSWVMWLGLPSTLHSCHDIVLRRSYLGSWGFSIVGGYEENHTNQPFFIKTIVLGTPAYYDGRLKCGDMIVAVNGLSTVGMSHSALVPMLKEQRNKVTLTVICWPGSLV
B2: Epidermal growth factor receptor substrate 15-like 1 (Homo sapiens), Q9UBC2 (parent)
chain: MAAPLIPLSQQIPTGNSLYESYYKQVDPAYTGRVGASEAALFLKKSGLSDIILGKIWDLADPEGKGFLDKQGFYVALRLVACAQSGHEVTLSNLNLSMPPPKFHDTSSPLMVTPPSAEAHWAVRVEEKAKFDGIFESLLPINGLLSGDKVKPVLMNSKLPLDVLGRVWDLSDIDKDGHLDRDEFAVAMHLVYRALEKEPVPSALPPSLIPPSKRKKTVFPGAVPVLPASPPPKDSLRSTPSHGSVSSLNSTGSLSPKHSLKQTQPTVNWVVPVADKMRFDEIFLKTDLDLDGYVSGQEVKEIFMHSGLTQNLLAHIWALADTRQTGKLSKDQFALAMYFIQQKVSKGIDPPQVLSPDMVPPSERGTPGPDSSGSLGSGEFTGVKELDDISQEIAQLQREKYSLEQDIREKEEAIRQKTSEVQELQNDLDRETSSLQELEAQKQDAQDRLDEMDQQKAKLRDMLSDVRQKCQDETQMISSLKTQIQSQESDLKSQEDDLNRAKSELNRLQQEETQLEQSIQAGRVQLETIIKSLKSTQDEINQARSKLSQLHESRQEAHRSLEQYDQVLDGAHGASLTDLANLSEGVSLAERGSFGAMDDPFKNKALLFSNNTQELHPDPFQTEDPFKSDPFKGADPFKGDPFQNDPFAEQQTTSTDPFGGDPFKESDPFRGSATDDFFKKQTKNDPFTSDPFTKNPSLPSKLDPFESSDPFSSSSVSSKGSDPFGTLDPFGSGSFNSAEGFADFSQMSKPPPSGPFTSSLGGAGFSDDPFKSKQDTPALPPKKPAPPRPKPPSGKSTPVSQLGSADFPEAPDPFQPLGADSGDPFQSKKGFGDPFSGKDPFVPSSAAKPSKASASGFADFTSVS
partner: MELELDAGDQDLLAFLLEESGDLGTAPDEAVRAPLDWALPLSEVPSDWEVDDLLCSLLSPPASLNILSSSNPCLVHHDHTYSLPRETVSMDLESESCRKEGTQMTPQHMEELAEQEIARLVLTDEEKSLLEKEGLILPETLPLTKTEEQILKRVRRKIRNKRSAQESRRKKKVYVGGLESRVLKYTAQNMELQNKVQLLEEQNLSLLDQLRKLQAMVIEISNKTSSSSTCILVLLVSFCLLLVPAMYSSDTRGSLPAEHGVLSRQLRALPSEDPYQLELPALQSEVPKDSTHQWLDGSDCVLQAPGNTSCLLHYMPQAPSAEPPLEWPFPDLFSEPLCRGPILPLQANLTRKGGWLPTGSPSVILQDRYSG
B3: Cysteine-rich C-terminal protein 1 (Homo sapiens), Q9UGL9 (parent)
chain: MSSQQSAVSAKGFSKGSSQGPAPCPAPAPTPAPASSSSCCGSGRGCCGDSGCCGSSSTSCCCFPRRRRRQRSSGCCCCGGGSQRSQRSNNRSSGCCSGC
partner: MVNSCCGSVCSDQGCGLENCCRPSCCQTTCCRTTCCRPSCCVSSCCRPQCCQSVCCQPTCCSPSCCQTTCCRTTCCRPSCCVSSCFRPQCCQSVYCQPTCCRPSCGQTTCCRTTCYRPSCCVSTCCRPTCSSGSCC
B4: Cyclin-D1-binding protein 1 (Homo sapiens), O95273 (parent)
chain: MASATAPAAAVPTLASPLEQLRHLAEELRLLLPRVRVGEAQETTEEFNREMFWRRLNEAAVTVSREATTLTIVFSQLPLPSPQETQKFCEQVHAAIKAFIAVYYLLPKDQGITLRKLVRGATLDIVDGMAQLMEVLSVTPTQSPENNDLISYNSVWVACQQMPQIPRDNKAAALLMLTKNVDFVKDAHEEMEQAVEECDPYSGLLNDTEENNSDNHNHEDDVLGFPSNQDLYWSEDDQELIIPCLALVRASKACLKKIRMLVAENGKKDQVAQLDDIVDISDEISPSVDDLALSIYPPMCHLTVRINSAKLVSVLKKALEITKASHVTPQPEDSWIPLLINAIDHCMNRIKELTQSELEL
partner: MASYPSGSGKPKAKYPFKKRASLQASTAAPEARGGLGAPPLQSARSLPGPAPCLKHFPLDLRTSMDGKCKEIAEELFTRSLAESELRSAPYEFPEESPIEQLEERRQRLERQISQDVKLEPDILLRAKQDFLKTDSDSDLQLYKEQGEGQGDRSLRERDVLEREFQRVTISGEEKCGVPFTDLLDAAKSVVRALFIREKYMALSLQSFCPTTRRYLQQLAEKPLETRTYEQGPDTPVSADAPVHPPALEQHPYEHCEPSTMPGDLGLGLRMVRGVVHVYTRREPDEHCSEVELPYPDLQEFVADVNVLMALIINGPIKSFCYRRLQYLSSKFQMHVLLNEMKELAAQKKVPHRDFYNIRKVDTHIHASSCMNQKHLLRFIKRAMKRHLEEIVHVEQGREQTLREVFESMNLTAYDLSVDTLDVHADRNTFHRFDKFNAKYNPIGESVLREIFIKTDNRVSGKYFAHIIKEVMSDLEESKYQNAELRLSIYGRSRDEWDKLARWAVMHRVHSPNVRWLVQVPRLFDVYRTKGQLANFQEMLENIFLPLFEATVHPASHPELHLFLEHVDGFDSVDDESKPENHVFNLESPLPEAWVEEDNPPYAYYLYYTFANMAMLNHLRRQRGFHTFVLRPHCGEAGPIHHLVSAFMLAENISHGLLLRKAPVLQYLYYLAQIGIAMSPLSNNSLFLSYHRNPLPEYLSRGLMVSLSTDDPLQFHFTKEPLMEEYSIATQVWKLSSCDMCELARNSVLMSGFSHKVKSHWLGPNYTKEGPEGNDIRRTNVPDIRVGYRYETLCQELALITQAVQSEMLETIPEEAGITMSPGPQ

Variants of: B1
Conditions: with lnx2_human LNX2, Q8N448

effect of a mutation on the interaction | Variant
with no effect | MLCYVTRPDAVLMEVEVEAKANGEDCLNQVCRRLGIIEVDYFGLQFTGSKGESLWLNLRNRISQQMDGLAPYRLKLRVKFFVEPHLILQEQTRHIFFLHIKEALLAGHLLCSPEQAVELSALLAQTKFGDYNQNTAKYNYEELCAKELSSATLNSIVAKHKELEGTSQASAEYQVLQIVSAMENYGIEWHSVRDSEGQKLLIGVGPEGISICKDDFSPINRIAYPVVQMATQSGKNVYLTVTKESGNSIVLLFKMISTRAASGLYRAITETHAFYRCDTVTSAVMMQYSRDLKGHLASLFLNENINLGKKYVFDIKRTSKEVYDHARRALYNAGVVDLVSRSNQSPSHSPLKSSESSMNCSSCEGLSCQQTRVLQEKLRKLKEAMLCMVCCEEEINSTFCPCGHTVCCESCAAQLQSCPVCRSRVEHVQHVYLPTHTSLLNLTVI [N342S]

Variants of: B2
Conditions: with creb3_human CREB3, O43889

effect of a mutation on the interaction | Variant
with no effect | P356L

Variants of: B3
Conditions: with kra42_human KRTAP4-2, Q9BYR5

effect of a mutation on the interaction | Variant
with no effect | MSSQQSAVSAKGFSKGSSQSPAPCPAPAPTPAPASSSSCCGSGRGCCGDSGCCGSSSTSCCCFPRRRRRQRSSGCCCCGGGSQRSQRSNNRSSGCCSGC [G20S]

Variants of: B4
Conditions: with ampd2_human AMPD2, Q01433

effect of a mutation on the interaction | Variant
disrupting interaction strength | MASATAPAAAVPTLASPLEQLRHLAEELRLLLPRVRVGEAQETTEEFNREMFWRRLNEAAVTVSREATTLTIVFSQLPLPSPQETQKFCEQVHAAIKAFIAVYYLLPKDQGITLRKLVRGATLDIVDGMAQLMEVLSVTPTQSPENNDLISYNSVWVACQQMPQIPRDNKAAALLMLTKNVDFVKDAHEEMEQAVEECDPYSGLLNDTEENNSDNHNHEDDVLGFPSNQDLYWSEDDQELIIPCLALVRASKACLKKIRMLVAENGKKDQVAQLDDTVDISDEISPSVDDLALSIYPPMCHLTVRINSAKLVSVLKKALEITKASHVTPQPEDSWIPLLINAIDHCMNRIKELTQSELEL [I277T]

Reference: IntAct's records for PubMed 31515488
